From patent US20140370516, “DIAGNOSIS OF TUBERCULOSIS” (CSIR, published 2014)

Key:
[1] = molecular target: T1, EsxGH heterodimer (ESX-3 secretion system) (UniProt O53692;P9WNK3 O53692:2-97,P9WNK3:1-96); assay: ELONA; conditions: label: biotin
T1 sequence 1: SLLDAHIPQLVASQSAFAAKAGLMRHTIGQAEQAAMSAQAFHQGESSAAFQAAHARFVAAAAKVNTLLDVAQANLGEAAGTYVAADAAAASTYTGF
T1 sequence 2: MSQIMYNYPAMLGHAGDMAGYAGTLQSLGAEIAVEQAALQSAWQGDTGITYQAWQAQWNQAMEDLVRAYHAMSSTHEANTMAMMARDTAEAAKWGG
Experimental: (§1) For each binding assay, 96 well micro-titre plates (Corning, Adcock Ingram) were coated with the CFP-10.ESAT-6 heterodimer in a 10 mM NaHCO₃ buffer pH 8.5 (Sigma) and left overnight at 4° C. The plates were then washed with 1× phosphate buffered saline containing 0.005% Tween 20 (PBS-T) pH7 (Sigma) and blocked with a 5% fat free milk solution for 1 hour at 4° C. The plates were then washed 3 times with a 1×PBS after which 150 nM biotinylated aptamer was added and incubated for 2 hours at room temperature. This was followed by three wash steps with 1×PBS-T and the addition to HRP-conjugated streptavidin (diluted 1:10000 in 1×PBS-T) and incubated for two hours at 37° C. The plates were then washed four more times with 1×PBS-T, after which a final 3,3′,5,5′-tetramethylbenzidine (TMB) detection substrate (Separations) was added. […] The reaction was stopped with a 2 M sulphuric acid solution (Merck), resulting in a colour change from blue to yellow. The plates were read on the MultiSkan Go plate reader (ThermoScientific, AEC-Amersham) at a wavelength of 450 nm. […] Each aptamer was done in triplicate and the repeats were averaged and the standard deviation calculated. Each aptamer was tested twice in triplicate to ensure accuracy. The aptamers were then compared to the aptamer alone control using a Student t-test statistical analysis to obtain the p value for significance.
(§2) Selected ssDNA aptamers were tested for binding specificity to the ESAT-6 and CFP-10 monomers. The aptamers were tested for binding using ELONA to CFP-10, ESAT-6, CFP-10.ESAT-6 heterodimer, a CFP-10.ESAT-6 related protein in the ESX3 secretion system (EsxGH complex) and a HIV surface glycoprotein (gp120). EsxGH is an ESAT-6 family related protein that is encoded and secreted by the ESX-3 secretion system and gp120 is a HIV glycoprotein which is unrelated to the Mtb antigens.

[2] = molecular target: ESAT-6 (monomer) (Mycobacterium tuberculosis, UniProt P9WNK7 P9WNK7:2-95); assay: ELONA; conditions: label: biotin
Experimental: as §1, §2

[3] = molecular target: T2, CFP-10 (monomer) (Mycobacterium tuberculosis, UniProt P9WNK5 P9WNK5:2-100); assay: SPR; CFP-10 immobilised on CM5 chip, BIAcore 3000; conditions: label: biotin; two predicted stem-loops
Experimental: (§3) FIG. 7 illustrates kinetic studies of 5 of the best aptamers. CFP-10 attached to a CM5 chip was used to capture the respective anti-CFP-10.ESAT-6 aptamers. The respective aptamers were injected at different concentrations at a flow rate of 10 μl/min for 5 minutes and allowed to dissociate for 10 minutes;
(§4) To determine the binding affinity of aptamers to the M.tb antigens, all four flow cells on a CM5 chip (BIAcore, Separations Scientific) were activated with EDC:NHS (BIAcore, Separations Scientific). CFP-10 was bound to three of the four flow cells by injecting 50 μl of 50 μg/ml CFP-10 over them. Ethanolamine (BIAcore, Separations Scientific) was then injected over all four flow cells to quench any remaining active sites. Partially bound or unbound protein was removed by a wash with 10 μl of a 10 mM NaOH solution. Different concentrations of the respective aptamers (0 nM, 31 nM, 62 nM, 125 nM, 250 nM, and 500 nM) were randomly injected over all four flow cells at a flow rate of 10 μl/min for 5 minutes. The respective aptamers, were then allowed to dissociate for 10 minutes. […] The evaluation was done using BiaEvaluation Software (BIAcore) to determine the KD values for each flow cell. The average dissociation constant was then determined.

[4] = molecular target: T2, CFP-10 (monomer); assay: SPR; CFP-10 immobilised on CM5 chip; also bound in ELONA; conditions: label: biotin; three predicted stem-loops
Experimental: as §3, §4

[5] = molecular target: T2, CFP-10 (monomer); assay: ELONA, 150 nM aptamer; conditions: label: biotin
[6] = molecular target: T3, CFP-10.ESAT-6 heterodimer (Mycobacterium tuberculosis, UniProt P9WNK5;P9WNK7 P9WNK5:2-100,P9WNK7:2-95); assay: ELONA, 150 nM aptamer; binding abrogated by anti-ESAT-6 mAb; conditions: label: biotin
Experimental: as §1, with “The assay was modified from an ELISA protocols for determination of aptamer-protein interactions and has been termed an ELONA. Unique aptamer clones identified by sequencing were tested for their individual binding characteristic to the CFP-10.ESAT-6 heterodimer using an ELONA. Each ssDNA aptamer was prepared using the exonuclease method as described above with minor modifications, in that all aptamers were prepared with the biotinylated forward primer. For” for “For”
The antibody competition binding was done using the ELONA method described above with minor modifications.

[7] = molecular target: T3, CFP-10.ESAT-6 heterodimer; assay: ELONA; slightly higher affinity than 90-mer (P<0.05); conditions: two predicted stem-loops
[8] = molecular target: T2, CFP-10 (monomer); assay: ELONA; affinity comparable to 90-mer; conditions: two predicted stem-loops
[9] = molecular target: T2, CFP-10 (monomer); assay: SPR; CFP-10 immobilised on CM5 chip; conditions: label: biotin
Experimental: as §3, §4

[10] = molecular target: T2, CFP-10 (monomer); assay: ELONA, 150 nM aptamer; SPR also run, Kd not given; conditions: label: biotin

B1: CSIR 2.19 (ssDNA)
DNA: GCCTGTTGTGAGCCTCCTAACTTCCAATAACGATACTTAAACCTGGTCTTTGCCAGTCAATGATAGCATCATGCTTATTCTTGTCTCCC
B1 was tested, and the binding result ([1]; two predicted stem-loops) was “no binding”, the binding result ([2]; two predicted stem-loops) was “no binding” and the Kd [3] was 1.6 nM.

B2: CSIR 2.11 (ssDNA)
DNA: GCCTGTTGTGAGCCTCCTAACCCCATCTTATACGTATATGGACTCATCTCGACCCCCGATAGGCTTGGTACATGCTTATTCTTGTCTCCC
In the case of B2, the Kd [4] is reported as 8 nM, the binding result ([1]; three predicted stem-loops) is reported as “no binding” and the binding result ([2]; three predicted stem-loops) is reported as “no binding”.

B3: CSIR 2.9 (ssDNA)
DNA: GCCTGTTGTGAGCCTCCTAACTCCGGTCTTCAACATGTCCAATCGAACTTCGGCGGAAATCCTTTACCTGCATGCTTATTCTTGTCTCCC
B3: binds [5]; no binding [1]; no binding [2]. B3: binds [6].

B4: CSIR 2.19 truncated (77-mer) (ssDNA)
DNA: GCCTGTTGTGAGCCTCCTAACTTCCAATAACGATACTTAAACCTGGTCTTTGCCAGTCAATGATAGCATCATGCTTA
modifications: [none (12 nt removed from the 3' end, parent positions 1-77)]
B4: binds [7]; binds [8].

B5: CSIR 2.21 (ssDNA)
DNA: GCCTGTTGTGAGCCTCCTAACACACACGTAGCGCCTTGTTGAAGTATACTCAAAGCATTCTCCACGCGGGCATGCTTATTCTTGTCTCCC
B5: binds [5]; no binding [1]; no binding [2]. B5: binds [6].

B6: CSIR 2.2 (ssDNA)
DNA: GCCTGTTGTGAGCCTCCTAACCCGTCTAACGAGATTGGGTCTTCATATGGCTCGAAGCGCGCGGTCAGTTCATGCTTATTCTTGTCTCCC
For B6, the binding result [1] was “no binding”, the binding result [2] was “no binding” and the Kd [9] was 21.5 nM.

B7: CSIR 2.15 (ssDNA)
DNA: GCCTGTTGTGAGCCTCCTAACTAATGTGGATGCTGCATCGTTAGTATTTCTAGCATGCAATATAGGCATGCATGCTTATTCTTGTCTCCC
B7: no binding [1]; no binding [2]; binds [10]. B7: binds [6].
